Measured values taken from paper PMC7116857.

Target: wild-type alpha-synuclein (UniProt P37840)
Test: microfluidic free-flow electrophoresis

wild-type alpha-synuclein (from UniProt P37840 1-140) (natural protein)
oligomer concentration (aptamer-bound, 1:1 assumed): < 80 nM
